Source: the supplement of paper PMC9170038

Tested on: K4 kissing-loop RNA reporter
Test: apparent KD of K4 kissing-loop reporter; higher = weaker reporter binding
Conditions: Eterna round: R107
Method: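 RNA-MaP round R107: designed RNA switches with theophylline, tryptophan, arginine or FMN aptamers are transcribed on-chip within common flanks. They are titrated with a labelled K4 kissing-loop RNA reporter in RNA-MaP buffer (100 mM Tris pH 7.5, 80 mM KCl, 4 mM MgCl2), without ligand or with the indicated ligand. Median apparent KD per design.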

[1] = input ligand: theophylline 20 uM
[2] = input ligand: tryptophan 2.4 mM
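Also: bound reporter read as fluorescence of individual clusters on recovered sequencing chips by microscopy, with normalized cluster intensities fitted with a binding model.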

Sequence	apparent KD of K4 kissing-loop reporter (input ligand: FMN 200 uM) [nM]	apparent KD of K4 kissing-loop reporter (input ligand: arginine 13.2 mM) [nM]	apparent KD of K4 kissing-loop reporter (input ligand: none) [nM]	apparent KD of K4 kissing-loop reporter [1] [nM]	apparent KD of K4 kissing-loop reporter [2] [nM]
ACGUAGUUCUAGGAUACCAGCCAAGAUGCCAGGACAAAAGUCCUGGCAGCCAGUGAUGUUGGCCCUUGGCAGCCUAGAACUACGA [Omei KL Theo B Exc B v9]	149	115	132	121	120
GCCGUAGAUGGAAGGAGCGUGCGUGAAGUGAUGUUUCACGAAGAGUUUUCCACCUUAUAUGCACAGGUAGGUCGCCAUCUACGGC	114	99	100	105	95.2
AUUAAUAACUGAGGAUAUCGUUUUACUGUAGUGAUGUUACAGAAAAUUCACAUUAUAAUUUCUAUUCGAGAAGGCAGAAUAAUUA [JR_ExcFMNB_Sub014]	106	74.6	65.2	71.9	65.1
CGCGCUGGUUGAGAGGUUGGCGCGAAUGAUACCAGUAUAUAAGAAUACCCUUGGCAGCAUAAGAAAGAUAUAGUGAUGUUGUAUA [SSTheophA.H]	592	344	404	448	370
GUGGUACAGGCGGCCGCCACUAGUGAUGUUAGUGAUAGAAGAUAUAGUAUAUAUCGGCAUUUAGUUAGGACCGGGCCUGGUGGUG [wwwrcmullin]	424	316	360	367	337
GGUGCUGUCUGUGCCGCCUUCCUCGUUCCUCGAGGACCGGUACGGCCGCCACUCGAGUGAUGUUUGGGUAGCGAUCCCUGCUAGC [Bdazzled - #15 Exc. Tryptophan A]	1010	737	1180	1030	917
UUGCAAAAGUCGGCCGCCACUCCGGGCCCUAUAAAUGGGCGCAGUGAUGUUGCGGCUAGGCCUCUGAGGACCGGGACUUUGUAGC [Aenonlebe]	79	103	142	111	199
ACGUCUCGUUAAAUCGUGGUUUCGAUCGAUACCAGUAGCGAGAGUUACCCUUGGCAGCGAAAUGAGUGAUGUUCAUGAAAGAAGA [KL-XTheoA9]	65.2	109	69.4	130	57.3
AAACAUCACUACUUCUUCGUCCUAGAAGACUAGGAUAUCAGGAAACUGAGAAGGAGUCUCUGCAGUGAUGUUGCAGCUAGGACGA [[K]'-[F2]'-[F1]'-[F1]-[F2]-[K1]-[K2]-[F]''_Design2]	191	219	194	249	280
AGGCGACGCAAAGGAUAUCACGGUUUUCUAGUGAUGUUAGUCAAGACCGACCGAGAAAUCAGUGUUUGAGAAGGUUGAACGUCGC [theeternabot_sameState_KL_FMN_B_46]	496	682	1870	756	970
AACUGCCAAGGAACAUUGUAAGAAGGUGAUACCAGCAUCGAAAGAUGCCCUUGGCAGCACCAACUUGCAGUGAUGUUGCAAGUAA [Design5]	183	156	165	180	159
AUAUUUAUUUAGUCACUUUUCAUAUUAUGUCAGGAUAUCGUAUUUUCGAGAAGGGACUCAUGCUAGUGAUGUUAGCUAUUUCUCA [JR_Nu3_ExcFMNA_Sub022]	104	170	141	162	111
UUGGGCAACCGAGAUACCAGUCAAAUCGCUCUGGAGUGAUGUUCCGGAACAUGCGGAGAAGACCCUUGGCAGCUCAAGACGGACA [Exclusion Theophylline B GF 1]	111	107	107	113	91.2
ACCUGUGACUGAAGGAGCGUCUACUCCAGAGGAUGGAGUGAUGUUCCACUUUAAUGGAGUGGACAGGUAGGUCGCAGUCAUAGGA [Arg B SS t6]	126	94.5	108	88.7	115
UGAUAGGACAGAAGGAGCGGUAGUGAUGUUGCCAAAAGGUUAAGGUGUCAAAAGACACCCUACCAGGUAGGUCGCUGUCCUAUCU	188	207	193	193	179
AAAAUUGCGGUCGAAUUAACUUCUUGCAUACGAGGACCGGUACGGCCGCCACUCGAGUCAAGUGAUGUUUGAUAAUCUAUUAUUA [JR_ExcTryptoA_Sub011]	190	258	279	301	160
UUAGUACAUAGAGAUACCAGCCAUCGAAGUGAUGUUUCGAGAAAUAAUGAUGUUGGUAUAGGCCCUUGGCAGCUCUAUGUACAUU [AK1 Exc Theophylline B]	103	95.4	104	94.7	97.4
AAUGUACAGGGAAGGAGCGUCGUCCAGUGAUGUUGGAGUUAAAUACCAGUGAUGUUGGUUAGACAGGUAGGUCGCCCUAAAGUGC [Exclusion Arginine B Gf 3]	104	80.2	92	95	88
GGUUAAUAGGAGGAUACCAGUACGAAUAAAGUACAUUAAUAGUAGAGUGAUGUUCUAAAGUACCCUUGGCAGCUUAGAGUUAGUU [#19 K4 Theophylline B Exclusion]	128	216	169	257	102
UGGGUGUAGUGAUGUUAUAUAGAGAGUGAUACCAGCGUAGAGAGAUGCCCUUGGCAGCAUAGAAGAGUAUCAUUGGAGGAGGAGG [ExTheophyl.Az]	689	743	883	730	514
GUGCGGCUAGUGAUGUUGGUUGCGUGGGAAGGAGCGCAGUAAAAUGCAGGUAGGUCGCCCGCAUCUCUGAUAAAAGAUUAAUUCA [KL-SSArg-A9]	276	196	228	238	228

Sequence	apparent KD of K4 kissing-loop reporter (input ligand: FMN 200 uM) [nM]	apparent KD of K4 kissing-loop reporter (input ligand: arginine 13.2 mM) [nM]	apparent KD of K4 kissing-loop reporter (input ligand: none) [nM]	apparent KD of K4 kissing-loop reporter [1] [nM]	apparent KD of K4 kissing-loop reporter [2] [nM]
UGUGCUGUGUACUGUAAUGUUAUGCGGGAUACCAGAGUCUUUUUAUUCCCUUGGCAGCUUGAGUGAUGUUUGAUGCUGUUCUUGU [kiokmullin]	362	301	370	331	314
CGAGUGAUGUUCGUUUUUUACUCUGUUUGACAGGAUAUGCGGAAACGCAGAAGGGUCACCUUUGAGUUAGACGGAGUUAUUUUUU [Ex FMN A 21]	409	287	322	309	290
UGAUACCAGACUGAUACCAGCCACAGAGUCAAAGACUCUGAAAAGGAAACCAGUGAUGUUGGCCCUUGGCAGCAGUCUGGUAUCU [TheoBX 15 #SwitchBubble #StaticStem]	191	176	171	152	164
UGAGUUAGACAAAAGUCUAGCUCUGGUGAAGGAGCGUCCGAAAGGACAGGUAGGUCGCACCACCUGAGUGAUGUUCAGAAUCCUU [KL-SSArg-A22]	670	506	789	762	468
UAACGGCCCAGUGAUGUUGGGUGGAGGCGGCGAGGACCGGUACGGCCGCCACUCGGCGCACAGGCGGAGUGAUGUUGCGCGUAAA [Same State Tryptophan A GF 13]	242	164	319	182	215
GUAAGACCGGGACUCCAGUGAUGUUGGAGGCAGGAUAUCCAGUCGAGGAGAAGGGCCAGGGAUAUCGAGCUGCUCGGUUUGUAGU [Argeis]	81.9	69.5	93.6	78.9	56.2
UCAUGAGAGACGGCCGCCACUGAAGCAGCUCUGUAAGAGCUGCAACAGUAGAGUGAUGUUCUGCGCAGGACCGGGUCGUCAUGAA [KL-SSTryp-B9]	513	206	398	352	450
CGCAGUGAUGUUGCUAUUAUUCUUGAUUAACGAGGACCGGUACGGCCGCCACUCGAUUUCUAUCUUAUUUUGUGUUAUGUUGAUU [JR_ExcTryptoA_Sub008]	306	359	333	417	225
AAAUAAAGGGCGGCCGCCACUGAUCGCCUCCGCGUGGGUAUGUAGUGAUGUUAUAUGGCCGCCAUCAGGACCGGGCCAAAUAAAA [#10 K4 Tryptophan B Same State]	214	187	340	272	193
UCGUCCGGAUUACUCGUGGUCAUGGUCGAUACCAGUAGAUUAAUCUACCCUUGGCAGCGACAUGAGUGAUGUUCAUGUGCAAUGA [KL-XTheo-A6 #analogue]	383	341	360	492	383
GUUUUAUAGGAGGAUACCAGUACAAAUAAAGUGCAUUAAUAGUAGAGUGAUGUUCUAAAGUACCCUUGGCAGCUUAGUUUAAGUU [#26 K4 Theophylline B Exclusion]	151	278	185	357	100
UGUCAUUGGUCUGAUACCAGCUGAUCGGAAACGAUCUUGCUGGAGUGAUGUUCCAGGAAAAGCCCUUGGCAGCAGACCGAUGACU [TheoBS 10 #SwitchBubble #StaticStem]	1320	445	1210	1100	1220
AUGGGUUUGGGAGGAUAUCCUUCCCACGUCGAAGUACCGUGCUUGAUGGAGUGAUGUUCGAUCAGAGGAGAAGGCCCGGAUUUAU [Same State FMN B GF21]	754	612	845	806	536
GGGCGGCAGACGGCCGCCACUCAUAGCAGCCAGUGAGUGAUGUUCGUGGCGGAGUGAUGUUCCUAGAGGACCGGGUUUGUUGUUC [Same State Tryptophan B GF 19]	551	354	464	471	596
UGUCGAGUGAUGUUCGAUGUGGUGCAUGCAGAGGAUAUAGGGUGGGCUAGAAGGCUGAAAAGUGCUUCGAGUGAUGUUCGAAGAU [Exclusion FMN A GF9]	129	112	123	100	114
CUUUGAACAUGAGUGAUGUUCAUGUCCGAAGGAGCGUGCGAAAGCACAGGUAGGUCGCGGACGUGAGUGAUGUUCAUGUGAGCGA [KL-XArg-A11 #analogue]	196	134	161	167	154
UGUCAUUGGUCGGCCGCCACUCCAUAAUGAGUGAUGUUCUAAAAGACGGAUCGAAAGAUCUGUCGGAGGACCGGGACCGAUGACU [FiskerMod 5 - Jieux - Same State - Tryptophan B]	566	456	680	799	267
ACAGGAAUCUUUGAUACCAGAACCCGUCUACCUCCAUCCUUGGAGCAUAGUGAUGUUGUGUUCCCUUGGCAGCAAUAGGGCACAU [theeternabot_exclusion_KL_Theo_B_34]	711	498	632	597	644
AAGCAGUCCCUUGUAGUCAUCGAAGAUGAACGAGGACCGGUACGGCCGCCACUCGGAGUGAUGUUCCGAAGGCUGCAAAAUAAAA [MatMod 19 - Jieux - Exclusion - Tryptophan A]	122	123	135	152	310
CCCAGUGAUGUUGGUUAAUAUAUUGAUUAACGAGGACCGGUACGGCCGCCACUCGAUAUUUCUAUAAUUAAAAGUUUUGUUUAAA [JR_SSTryptoA_Sub001]	459	426	435	417	327
GCAUAGCAGACGUUGAGUGGGAGCCAGGCACGAGGACCGGUACGGCCGCCACUCGACUAGGUUUUCAGUGAUGUUGAAAAUUUAG [Exclusion Tryptophan A GF4]	151	141	142	140	156
